Measurements reported in patent US20230270832A1, “MAGEA1 IMMUNOGENIC PEPTIDES, BINDING PROTEINS RECOGNIZING MAGEA1 IMMUNOGENIC PEPTIDES, AND USES THEREOF” (TScan Therapeutics, Inc., priority 2021, published 2023).

Key:
[1] = system: >600,000 protein fragments spanning every wild-type (w.t.) human protein; assay: Genome-wide SafetyScan off-target screen; assay type: cell-based; details: overexpressed 90-aa protein fragments
Protocol: Primary CD8+ T cells were prepared as described above to express HN-P32-41. Triplicate wells transduced with lentiviral particles to express HN-32-41 combined in fresh complete T cell medium, and expanded until Day 5 in a G-Rex° 10 culture vessel (Wilson Wolf). On Day 5, cells were harvested, and cell concentrations were adjusted to 100 ×10^6 CD3^+ T cells/mL in EasySep buffer (StemCell Inc) and FcBlock solution with CD34 magnetic beads (Miltenyi) for 30 minutes at 4C, washed with EasySep buffer, and separated using a QuadroMACS® Separator and LS columns (Miltenyi). Isolated cells were washed and resuspended in fresh complete T cell medium and expanded in G-Rex®10 flasks (Wilson Wolf) until day 12, at which point cells were frozen in CryoStor® CS10 and stored at liquid nitrogen until use.
CD8+ T cells expressing HN-32-41 were thawed and restimulated (further expanded) by co-culturing T cells with irradiated (60 grays) allogeneic PBMCs in the presence of 0.1 ug/mL anti-CD3 (OKT3, eBioscience) and 50 U/mL recombinant IL-2 (Peprotech) in fresh T cell medium (RPMI 1640 supplemented with 10% heat-inactivated fetal bovine serum (FBS), 100 IU/mL penicillin, 100 μg/mL streptomycin, recombinant human IL-2 [50 U/mL, PeproTech]) in GRex® 100 flasks (Wilson Wolf). 50 U/mL recombinant IL-2 was added to expanding cells every other day until day 6. […]

[2] = system: C*07:02 HEK reporter cells that express the indicated full length proteins; assay: Full-length ORF validation of putative off-targets in C*07:02 HEK reporter cells; assay type: cell-based, human; details: co-culture with C*07:02 HEK reporter cells
Protocol: Hit that validated as targets using 90-mers were advanced to testing against full protein open reading frames (ORFs). ORFs for TLE3 and SLC6A13 were cloned from the ORFeome Collaboration Library (Horizon). LAMB4 intron retention ORF was synthesized (GenScript). These clones were cloned into lentiviral over-expression vectors and delivered to C*07:02 HEK reporter cells by transduction followed by selection with puromycin. Cells were seeded a day before co-culture with T cells expressing HN-32-41 at an E:T ratio of ˜2:1. After 4 hours, the co-cultures were harvested by pipetting and fluorescence of the reporter was detected using a CytoFLEX™ S instrument (Beckman Coulter). The PIGO ORF clone was purchased from Genscript in pcDNA3.1 overexpression vector and delivered by transient transfection using FuGENE6 reagent (Promega). C*07:02 HEK reporter cells were seeded to adhere overnigth, then transiently transfected with the PIGO ORF. The media was refreshed then cells expant overnight. Cells were co-cultured with T cells expressing HN-32-41 at an E:T of ˜2:1. After 4 hours, the co-cultures were harvested by pipetting and fluorescence of the reporter was detected using a CytoFLEX™ S instrument (Beckman Coulter).

[3] = system: primary cells from healthy HLA-C*07:02+ human donors; assay: Co-culture with normal primary cells, IFNγ secretion; assay type: cell-based; details: pan T cells, non-pulsed primary cells vs MAGE-A1 peptide pulsed
Excerpt: Primary normal cells from C*07:02+ donors that were expanded, confirmed to maintain differentiation states, and frozen were obtained (Lonza). Tested samples include: Human umbilical vein endothelial cells (HUVEC (CC-2517)), lung small airway epithelial cells (SAEC (CC-2547)) and lung bronchial-tracheal epithelial cells (NHBE (CC-2540)).
Prior to co-culture assays, primary normal cells were thawed, washed, resuspended in RPMI media supplemented with IL-2, IL-7, and IL-15 and seeded in 96-well flat-bottom culture plates at a density of 200,000 cells/well and allowed to rest for 4 hours. Cells were pulsed with MAGE-A1 peptide for 1-2 hours or left un-pulsed in their respective media. HN-32-41 or untransduced (NTD) T cells were then added at a density of 100,000 cells/well in complete T cell media. 24 hours post co-culture, supernatants were collected and frozen at −80° C.). Supernatants were thawed and analyzed for IFN-γ levels by loading on a Simple Plex Human IFN-gamma (3rd Gen) Cartridge (ProteinSimple, San Jose, Calif.) using the Ella™ instrument.
For flow cytometry analysis (Cytoflex S™ instrument, Beckman Coulter), cell pellets were washed with FACS buffer (PBS, 0.5% BSA, 2 mM EDTA) and stained for activation-induced markers, including PE-conjugated anti-CD137 (Miltenyi), AF647-conjugated anti-CD69 (Biolegend), and BV421-conjugated anti-CD8 (BioLegend).

B1: TCR 32-41: T cell receptor recognizing MAGEA1 epitope presented by HLA-C*07:02; alpha TRAV27/TRAJ52, beta TRBV12-4/TRBJ1-4; wild type, HM and MGTM sequences listed (protein)
TCR alpha: QLLEQSPQFLSIQEGENLTVYCNSSSVFSSLQWYRQEPGEGPVLLVTVVTGGEVKKLKRLTFQFGDARKDSSLHITAAQPGDTGLYLCAGDESISYGKLTFGQGTILTVHPNIQNPEPAVYQLKDPRSQDSTLCLFTDFDSQINVPKTMESGTFITDKCVLDMKAMDSKSNGAIAWSNQTSFTCQDIFKETNATYPSSDVPCDATLTEKSFETDMNLNFQNLLVMVLRILLLKVAGFNLLMTLRLWSS
TCR beta: DAGVIQSPRHEVTEMGQEVTLRCKPISGHDYLFWYRQTMMRGLELLIYFNNNVPIDDSGMPEDRFSAKMPNASFSTLKIQPSEPRDSAVYFCASSFLGWNEKLFFGSGTQLSVLEDLRNVTPPKVSLFEPSKAEIANKQKATLVCLARGFFPDHVELSWWVNGKEVHSGVCTDPQAYKESNYSYCLSSRLRVSATFWHNPRNHFRCQVQFHGLSEEDKWPEGSPKPVTQNISAEAWGRADCGITSASYQQGVLSATILYEILLGKATLYAVLVSTLVVMAMVKRKNS
- putative off-targets identified in screen [1]: seven potential off-targets
- reactivity to putative off-targets as full-length proteins (activation of the reporter, % IFP) [2]: no activation of the reporter, measured as % IFP, except for LAMB4-IR
- reactivity to putative off-targets as full-length proteins (activation of the reporter, % IFP) ([2]; listed as TCR41): did not appreciably react with cells expressing putative off-targets
- reactivity to normal human cells (IFNγ secretion in culture supernatants) [3]: does not show reactivity to normal human cells
- reactivity to normal human cells (IFNγ secretion in culture supernatants) ([3]; listed as TCR41): did not react with healthy human primary cells
